Results reported in patent US20230051715A1 (MABWELL THERAPEUTICS, published 2023).

T1: full-length human C1s (produced in house) (human, UniProt P09871 16-688)
T1 construct: Called full-length; Partly auto-cleaved at R422-I423 on blots; also called HuC1s; Hu C1s
T1 sequence: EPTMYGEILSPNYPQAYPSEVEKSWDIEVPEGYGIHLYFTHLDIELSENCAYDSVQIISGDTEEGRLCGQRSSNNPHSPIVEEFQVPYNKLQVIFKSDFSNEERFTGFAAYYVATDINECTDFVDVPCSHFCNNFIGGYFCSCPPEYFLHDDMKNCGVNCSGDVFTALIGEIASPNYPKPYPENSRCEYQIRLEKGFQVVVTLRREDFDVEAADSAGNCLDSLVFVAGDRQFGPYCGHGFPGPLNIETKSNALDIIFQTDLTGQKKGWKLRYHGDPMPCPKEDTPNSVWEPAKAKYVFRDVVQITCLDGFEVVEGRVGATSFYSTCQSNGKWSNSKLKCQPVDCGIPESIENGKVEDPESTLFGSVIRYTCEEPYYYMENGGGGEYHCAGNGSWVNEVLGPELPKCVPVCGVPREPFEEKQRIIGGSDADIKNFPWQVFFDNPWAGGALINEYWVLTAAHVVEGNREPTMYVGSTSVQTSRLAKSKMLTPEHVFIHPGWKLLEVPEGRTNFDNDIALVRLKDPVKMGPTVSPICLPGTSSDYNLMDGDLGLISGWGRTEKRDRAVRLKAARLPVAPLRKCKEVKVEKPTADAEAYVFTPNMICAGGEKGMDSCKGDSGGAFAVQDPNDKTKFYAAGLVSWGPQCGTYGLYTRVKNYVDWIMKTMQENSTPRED

T2: cynomolgus monkey C1s (produced in house) (cynomolgus monkey, UniProt P09871 16-685 (human entry), limits assumed)
T2 construct: also called CyC1s
T2 chain: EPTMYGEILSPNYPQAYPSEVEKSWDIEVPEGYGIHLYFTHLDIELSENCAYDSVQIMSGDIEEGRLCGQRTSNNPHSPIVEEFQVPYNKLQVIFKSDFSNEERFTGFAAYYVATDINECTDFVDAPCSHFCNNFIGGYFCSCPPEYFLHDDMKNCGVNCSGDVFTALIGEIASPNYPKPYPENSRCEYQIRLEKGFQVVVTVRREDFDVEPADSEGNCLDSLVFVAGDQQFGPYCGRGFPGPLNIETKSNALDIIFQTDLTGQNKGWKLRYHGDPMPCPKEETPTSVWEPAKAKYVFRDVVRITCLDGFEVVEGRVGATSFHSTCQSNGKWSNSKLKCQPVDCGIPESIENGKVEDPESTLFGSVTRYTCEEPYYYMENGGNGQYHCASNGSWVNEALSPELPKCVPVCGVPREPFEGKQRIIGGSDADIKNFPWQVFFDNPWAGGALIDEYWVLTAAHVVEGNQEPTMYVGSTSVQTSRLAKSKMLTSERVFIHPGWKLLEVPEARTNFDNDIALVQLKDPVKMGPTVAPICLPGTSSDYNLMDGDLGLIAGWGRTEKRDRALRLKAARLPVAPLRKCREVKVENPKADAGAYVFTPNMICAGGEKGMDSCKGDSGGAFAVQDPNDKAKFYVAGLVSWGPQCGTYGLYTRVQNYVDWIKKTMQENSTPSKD

T3: rat C1s (produced in house) (rat, UniProt Q6P6T1 16-688)
T3 construct: also called RaC1s
T3 sequence: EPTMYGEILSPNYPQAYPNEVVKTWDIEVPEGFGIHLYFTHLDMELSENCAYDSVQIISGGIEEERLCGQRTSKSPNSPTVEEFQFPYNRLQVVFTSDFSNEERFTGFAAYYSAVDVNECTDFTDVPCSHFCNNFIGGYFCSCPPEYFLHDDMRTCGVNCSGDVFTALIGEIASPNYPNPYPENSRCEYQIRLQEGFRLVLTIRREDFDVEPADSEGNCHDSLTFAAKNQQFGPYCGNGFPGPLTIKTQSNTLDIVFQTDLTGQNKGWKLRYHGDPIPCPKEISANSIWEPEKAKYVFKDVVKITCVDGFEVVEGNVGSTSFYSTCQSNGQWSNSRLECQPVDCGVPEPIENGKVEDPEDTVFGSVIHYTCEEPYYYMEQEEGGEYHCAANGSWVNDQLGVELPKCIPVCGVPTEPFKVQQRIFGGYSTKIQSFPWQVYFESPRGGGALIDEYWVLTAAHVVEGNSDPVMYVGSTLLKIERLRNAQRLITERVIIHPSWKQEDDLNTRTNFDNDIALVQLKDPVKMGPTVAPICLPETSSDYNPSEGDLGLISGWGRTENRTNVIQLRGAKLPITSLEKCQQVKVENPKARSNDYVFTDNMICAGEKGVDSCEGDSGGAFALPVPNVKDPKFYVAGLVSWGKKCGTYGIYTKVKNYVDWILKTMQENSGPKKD


Legend:
[1] = target: T1, full-length human C1s (produced in …); assay: BLI (Octet RED96e), antibody on AHC biosensor; C1s Species: Human; R^2 0.9983
Source text: (§1) At last, analyte was dissociated in 1×KB for 360 sec. Data analysis was done using OCTET® Data Analysis HT Software (Sartorius AG).

[2] = target: T2, cynomolgus monkey C1s (produced in …); assay: BLI (Octet RED96e), antibody on AHC biosensor; C1s Species: Cyno Monkey; R^2 0.9999
Source text: as §1

[3] = target: T3, rat C1s (produced in house); assay: BLI (Octet RED96e), antibody on AHC biosensor; C1s Species: Rat; R^2 0.9776
Source text: as §1

Kd [1] | koff [1] | kon [1] | Kd [2] | koff [2] | kon [2] | Kd [3] | koff [3] | kon [3] | Binder
0.012 nM | 3.9e-05 s⁻¹ | 3.2e+06 M⁻¹ s⁻¹ | 0.23 nM | 6.5e-05 s⁻¹ | 280000 M⁻¹ s⁻¹ | – | – | – | Anti-C1s antibody 2-7 (antibody, human IgG1, kappa, V domains shown, the HC/LC entries may hold it too; also called clone 2-7) VH: EVKLEESGGGLVPPGGSMKLSCVASGFTFSNYFMNWVRQSPEKGLEWVAEIRLKFTNYATHYAESVEGRFTISRDDSKSSVYLQMNNLRAEDTGIYYCTRDYGSRNGYFDYWGQGTTLTVSS VL: DIVMTQAAPSVPVTPGESVSISCRSSKSLLHSNGNTFLYWFLQRPGQSPQLLIYRMSNLASGVPDRFSGSGSGTAFTLRVSRVEAEDVGIYYCMQHLEYPYTFGGGTKLEIKT
– | – | – | – | – | – | 17 nM | 0.0012 s⁻¹ | 68000 M⁻¹ s⁻¹ | Anti-C1s antibody 2-8 (antibody, V domains shown, the HC/LC entries may hold it too; also called clone 2-8) VH: EVQLQQSGAELVRPGALVKLSCKASGFNIKEYYMHWVKQRPEQGLEWIGWIDPENGDTIYDPKFQGKASITADTSSNTAYLQLSSLTSEDTAVYYCARSRLFFAYWGQGTLVTVSA VL: DIVMTQSHKFMSTSVGDRVSFTCKASQDVRTAVDWYQQKPGQSPKLLIYSASYRYTGVPDRFTGTGSGTDFTFTISSVQAEDLAVYFCQQQYTTPYTFGGGTKLEIKT
